Kd data for five sequences are collected here from the Immune Epitope Database (IEDB).

The term Kd denotes the equilibrium constant for the complex coming apart. A high value points to a looser complex.

The target in assay [1] is HLA-B*57:01. Put plainly: IEDB peptide-MHC binding, purified MHC/competitive/fluorescence; filed as Kd, often an IC50 or EC50 that approximates it; ≥ and ≤ were set here for values at or beyond the usual limits of such assays.
The target of a further assay is HLA-B*39:01. The assay is described as above.
Assay [2] addresses HLA-A*02:01. Described as above.
The target in assay [3] is HLA-A*26:01. The assay is described as above.
The target of a further assay is HLA-B*46:01. The description is as above. The conditions noted are these: source organism: Pan troglodytes.
The target of the next assay is HLA-B*51:01. Described as above.
Assay [4] addresses HLA-A*68:02. Described as above. Conditions: source organism: Pan troglodytes.
Assay [5] concerns the target HLA-B*15:01. Described as above.
Assay [6] deals with HLA-A*03:01. The description is as above. Conditions: source organism: Pan troglodytes.
The target in a further assay is HLA-B*27:03. The assay is described as above.
For assay [7], the target named is HLA-A*69:01. The assay is described as above.
Assay [8] deals with HLA-B*18:01. Described as above.
For assay [9], the target named is HLA-B*15:17. The description is as above.
Assay [10] concerns the target HLA-B*57:01. Nature of the assay: IEDB peptide-MHC binding, purified MHC/direct/fluorescence; filed as Kd, often an IC50 or EC50 that approximates it; ≥ and ≤ were set here for values at or beyond the usual limits of such assays. The conditions noted are these: source organism: Marburg virus - Musoke, Kenya, 1980.
Another assay addresses HLA-B*07:02. The description is as above.
Another assay addresses HLA-B*58:01. The description is as above.
Another assay concerns the target HLA-B*48:01. The assay is described as above. Conditions: source organism: Marburg virus - Musoke, Kenya, 1980.
Another assay addresses HLA-B*40:01. Described as above.
Assay [11] has as its target HLA-A*26:01. The description is as above.
A further assay concerns the target HLA-B*27:05. The description is as above.
The target of a further assay is HLA-A*11:01. The description is as above.
Assay [12] has as its target HLA-A*68:02. The description is as above. The conditions noted are these: source organism: Marburg virus - Musoke, Kenya, 1980.
The next assay addresses HLA-B*08:01. The description is as above.
The target of a further assay is HLA-B*15:09. Described as above. The conditions noted are these: source organism: Ravn virus - Ravn, Kenya, 1987.
Assay [13] deals with HLA-A*69:01. The assay is described as above.
The target of assay [14] is HLA-B*18:01. The assay is described as above. Conditions: source organism: Marburg virus - Musoke, Kenya, 1980.
The target of a further assay is HLA-A*01:01. The description is as above.
In a further assay the target is HLA-A*31:01. Described as above.
Assay [15] deals with HLA-B*15:17. The assay is described as above. The conditions noted are these: source organism: Marburg virus - Musoke, Kenya, 1980.
For a further assay, the target named is HLA-A*02:06. Put plainly: IEDB peptide-MHC binding, purified MHC/competitive/fluorescence; filed as Kd, often an IC50 or EC50 that approximates it; ≥ and ≤ were set here for values at or beyond the usual limits of such assays. Conditions: source organism: Orthomarburgvirus marburgense.
A further assay deals with HLA-B*35:01. Put plainly: IEDB peptide-MHC binding, purified MHC/direct/fluorescence; filed as Kd, often an IC50 or EC50 that approximates it; ≥ and ≤ were set here for values at or beyond the usual limits of such assays.
Assay [16] deals with HLA-A*02:01. Described as above.
A further assay has as its target HLA-B*44:02. The description is as above.
A further assay deals with HLA-A*24:03. Described as above.
The target in assay [17] is HLA-B*15:01. The assay is described as above.
Assay [18] concerns the target HLA-A*03:01. The assay is described as above.
The target of the next assay is HLA-A*02:19. The description is as above. The conditions noted are these: source organism: Limestone Canyon virus.
The next assay has as its target HLA-A*29:02. The assay is described as above. Conditions: source organism: Limestone Canyon virus.
The target of another assay is HLA-A*02:12. Described as above. Conditions: source organism: Limestone Canyon virus.
The target in a further assay is HLA-A*02:16. The description is as above. Conditions: source organism: Limestone Canyon virus.
Another assay addresses HLA-C*15:02. The assay is described as above. The conditions noted are these: source organism: Four Corners hantavirus.
The mark [19] stands for this setting: source organism: Pan troglodytes.
Where [20] appears, read: source organism: Marburg virus - Musoke, Kenya, 1980.
The mark [21] stands for this setting: source organism: Ravn virus - Ravn, Kenya, 1987.
[22] abbreviates: source organism: Brucella melitensis.
Where [23] appears, read: source organism: Brucella abortus.
Where [24] appears, read: source organism: Four Corners hantavirus.
Setting [25] is: source organism: Salmonella enterica subsp. enterica serovar Typhi.

For the sequence FLFDRLTNG, the Kd was ≥ 20 µM with HLA-B*57:01 [1] (setting [19]); ≥ 20 µM in the assay with HLA-B*39:01 (setting [19]); 0.0015 µM with HLA-A*02:01 [2] (setting [19]); ≥ 20 µM with HLA-A*26:01 [3] (setting [19]); ≥ 20 µM with HLA-B*46:01; ≥ 20 µM with HLA-B*51:01 (setting [19]). In addition, the Kd with HLA-A*68:02 [4], in the assay with HLA-B*15:01 [5] (setting [19]), in the assay with HLA-A*03:01 [6], with HLA-B*27:03 (setting [19]), in the assay with HLA-A*69:01 [7] (setting [19]) and with HLA-B*18:01 [8] (setting [19]) was ≥ 20 µM in each case. Moreover, the Kd with HLA-B*15:17 [9] (setting [19]) was ≥ 20 µM.
For GEGSGARLL, the Kd with HLA-B*57:01 [10] is ≥ 20 µM; in the assay with HLA-B*07:02 (setting [20]), ≥ 20 µM; with HLA-B*58:01 (setting [20]), ≥ 20 µM; with HLA-B*48:01 it was ≥ 20 µM; in the assay with HLA-B*40:01 (setting [20]), 0.279 µM; with HLA-A*26:01 [11] (setting [21]), ≥ 20 µM. For the same sequence, the Kd with HLA-B*27:05 (setting [20]), with HLA-A*11:01 (setting [20]), with HLA-A*68:02 [12], with HLA-B*08:01 (setting [21]), with HLA-B*15:09 and with HLA-A*69:01 [13] (setting [20]) was ≥ 20 µM in each case. Moreover, the Kd in the assay with HLA-B*18:01 [14] is ≥ 20 µM; with HLA-A*01:01 (setting [20]) it was ≥ 20 µM; with HLA-A*31:01 (setting [20]), ≥ 20 µM; in the assay with HLA-B*15:17 [15], ≥ 20 µM; with HLA-A*02:06 it was 1.14 µM; in the assay with HLA-A*02:01 [2] (source organism: Orthomarburgvirus marburgense), 4.69 µM.
For GYSFSIPGY, the Kd was 0.468 µM in the assay with HLA-B*35:01 (setting [22]); ≥ 20 µM in the assay with HLA-B*07:02 (setting [23]); ≥ 20 µM with HLA-A*02:01 [16] (setting [23]); ≥ 20 µM with HLA-B*44:02 (setting [23]); ≥ 20 µM with HLA-B*58:01 (setting [23]); ≥ 20 µM in the assay with HLA-B*40:01 (setting [23]). Further, the Kd is ≥ 20 µM in the assay with HLA-A*26:01 [11] (setting [23]); ≥ 20 µM in the assay with HLA-B*27:05 (setting [23]); ≥ 20 µM with HLA-A*11:01 (setting [23]); 1.07 µM with HLA-A*24:03 (setting [22]); 0.548 µM with HLA-B*15:01 [17] (setting [22]); ≥ 20 µM with HLA-A*03:01 [18] (setting [23]). In addition, the Kd with HLA-B*08:01 (setting [23]), with HLA-A*69:01 [13] (setting [23]) and in the assay with HLA-A*31:01 (setting [23]) was ≥ 20 µM each time.
In the case of KARNIISPV, the Kd with HLA-A*02:19 is ≥ 20 µM; in the assay with HLA-A*29:02 it was ≥ 20 µM; in the assay with HLA-A*02:12, ≥ 20 µM; with HLA-A*02:16 it was ≥ 20 µM; with HLA-B*07:02 (source organism: Hantavirus Monongahela-3) it was 0.107 µM; in the assay with HLA-C*15:02 it was 0.088 µM. Also, the Kd with HLA-A*03:01 [18] (source organism: Limestone Canyon virus), in the assay with HLA-B*57:01 [1] (setting [24]), in the assay with HLA-B*39:01 (setting [24]), with HLA-A*26:01 [3] (setting [24]), with HLA-B*51:01 (setting [24]) and with HLA-B*15:01 [5] (setting [24]) was ≥ 20 µM throughout. The Kd with HLA-B*27:03 (setting [24]), with HLA-A*69:01 [7] (setting [24]), with HLA-B*18:01 [8] (setting [24]) and with HLA-B*15:17 [9] (setting [24]) was ≥ 20 µM throughout.
With LPLIVDTAA, the Kd with HLA-B*35:01 (setting [25]) is 0.00636 µM; in the assay with HLA-B*07:02 (setting [25]) it was 5.75 µM; with HLA-A*02:01 [16] (setting [25]), ≥ 20 µM; with HLA-B*44:02 (setting [25]), ≥ 20 µM; in the assay with HLA-B*58:01 (setting [25]), ≥ 20 µM; with HLA-B*40:01 (setting [25]) it was ≥ 20 µM. Further, the Kd with HLA-A*26:01 [11] (setting [25]), in the assay with HLA-B*27:05 (setting [25]), with HLA-A*11:01 (setting [25]), with HLA-A*24:03 (setting [25]), with HLA-B*15:01 [17] (setting [25]) and with HLA-A*03:01 [18] (setting [25]) was ≥ 20 µM in each case. Further, the Kd is 11.2 µM with HLA-B*08:01 (setting [25]), ≥ 20 µM in the assay with HLA-A*69:01 [13] (setting [25]), ≥ 20 µM in the assay with HLA-A*01:01 (setting [25]) and ≥ 20 µM in the assay with HLA-A*31:01 (setting [25]).
